Data: PMC4297981 (Scientific Reports, 2015)

Target: the molecule itself
Test: SDS-PAGE

B1: integrin β1a-TMC variant L749C (transmembrane and cytoplasmic domains, V717-K798, cys-less background), reconstituted in POPC/POPG liposomes (domain or fragment, human, UniProt P05556-1 717-798, looked up)
chain: VVENPESPTGPDIIPIVAGVVAGIVLIGLALLCIWKLLMIIHDRREFAKFEKEKMNAKWDTGENPIYKSAVTTVVNPKYEGK
binding result: binds
